This passage reports Km results from PMC6584995, “Disruption of an amino acid transporter LHT1 leads to growth inhibition and low yields in rice” (BMC Plant Biology, 2019).

Substrate in this data set: NC(=O)C[C@H](N)C(=O)O
Description: two-electrode voltage clamp in Xenopus oocytes, Asn-induced currents. It counts as cell-based, Oryza sativa. The settings on record: pH 5.4 (Tris/MES), currents at -140 mV, holding potential -40 mV, transport. A general note: In two-electrode clamp one electrode senses voltage and the other passes current.

B1: OsLHT1 (Oryza sativa Japonica Group) (protein)
chain: MGTQVADNYPPAKDGRSAQEKAIDDWLPITSSRNAKWWYSAFHNVTAMVGAGVLSLPYAMSELGWGPGIAVLILSWIITLYTLWQMVEMHEMVPGKRFDRYHELGQHAFGEKLGLWIVVPQQLVVEVGVNIVYMVTGGKSLKKFHDVLCEGHGCKNIKLTYFIMIFASVHFVLSQLPNFNSISGVSLAAAVMSLSYSTIAWGASVDKGKVADVDYHLRATTSTGKVFGFFSALGDVAFAYAGHNVVLEIQATIPSTPEKPSKKPMWKGVVVAYIIVALCYFPVALVGYWAFGNHVDDNILITLSRPKWLIALANMMVVIHVIGSYQIYAMPVFDMIETVLVKKLRFPPGLTLRLIARTLYVAFTMFIAITFPFFGGLLGFFGGFAFAPTTYFLPCIMWLAIYKPRRFSLSWFTNWICIILGVMLMILSPIGGLRQIIIDAKTYKFYS
The term Km denotes the substrate concentration at which the rate is half of its maximum. With B1, the Km came out at 583 ± 51 µM.
